Patent US20200010536A1

B1: SA-13 (antibody, V domains shown)
VH: QVQLVESGGGLVRPGGSLRLSCAASGFTFSEYYMSWIRQAPGKGLEWLSYISSSGTTIGHADSLKGRFTISRDNARNSLFLQMNSLRAEDTAVYYCARDGVGGPRARYDAFDIWGQGTLVTVSS
VL: QSVLTQPPSVSGAPGQRVTISCTGTYSNIGAGYDVHWYQQLPGRAPKLLIYGNRNRPSGVPDRFSGSKSGTSASLAITGLQAEDEADYYCQSHDSSLSGSVFGGGTKVTVL
B2: SA-15 (antibody, V domains shown)
VH: QVQLVQSGGGVVQPGRSLRLSCAASGFSFSTYDMNWVRQAPGKGLEWLSIISYDETNKYYADSVKGRFTISRDNSKNTLFLQMNSLKPEDSAVYHCVKVGWTLVGDGVDMWGQGTLVTVSS
VL: QPVLTQSPSSLSASVGDRVTISCRASQGISHYLAWYQQQPGKVPKLLIYAASTLQSGVPSRFSGSGSGTDFTLTISSLQPEDVATYYCQKYNGAPFTFGPGTKVDIK
B3: SA-17 (antibody, V domains shown)
VH: QVQLVQSGGAVVQPGGSLRLSCVASGFTFDDYAMHWVRQAPGKGLEWVSLITLDGGRTYYADSVKGRFTISRDNSKNSLYLQMNRLRADDTGFYYCARDIKIGEAVMITVPGQHWGQGTLVTVSS
VL: QSVVTQDPGVSVALGQTVFITCQGDTLRSNYANWFQQKPGQAPVLVMYGKNNRPSGIPDRFSGSSSGNTASLTITGAQAEDEADYYCNSRDSSGNHVVFGGGTRVTVL

Biological target: LukAB heterodimer (Staphylococcus aureus)
Test: ELISA, immobilized LukAB, anti-human IgG-peroxidase detection

Binder | EC50 [µg/mL]
B1 | 0.8
B2 | 1.5
B3 | 0.3
